These are literature values, as cited in article PMC4927088.

For the data set, the target named is LPL (UniProt P11151).
Chain of UniProt P11151 (P11151 29-478): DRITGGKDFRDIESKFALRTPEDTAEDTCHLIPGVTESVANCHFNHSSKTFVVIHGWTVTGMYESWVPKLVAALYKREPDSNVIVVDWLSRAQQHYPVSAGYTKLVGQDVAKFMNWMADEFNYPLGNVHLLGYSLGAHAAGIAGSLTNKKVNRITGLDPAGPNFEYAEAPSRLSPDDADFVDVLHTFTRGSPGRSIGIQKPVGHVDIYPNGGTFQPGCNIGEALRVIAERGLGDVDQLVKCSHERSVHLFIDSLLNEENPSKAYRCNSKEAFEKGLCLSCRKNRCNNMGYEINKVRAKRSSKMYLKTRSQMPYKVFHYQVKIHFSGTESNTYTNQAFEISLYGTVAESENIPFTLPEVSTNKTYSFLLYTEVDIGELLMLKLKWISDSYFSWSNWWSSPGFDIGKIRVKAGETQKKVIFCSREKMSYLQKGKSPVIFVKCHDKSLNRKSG

In the case of GPIHBP1 (from UniProt Q8IV16), the Kd was 25 nM.
